{"source": "the Human Domainome abundance scans (Beltran et al. 2025)", "parents": {"B1": {"name": "GA-binding protein alpha chain, residues 172 to 250; numbered along this chain, Q06546 (parent)", "chain": "GYRKEQERLGIPYDPIQWSTDQVLHWVVWVMKEFSMTDIDLTTLNISGRELCSLNQEDFFQRVPRGEILWSHLELLRKY"}}, "note": "± gives the uncertainty stated by the source."}
{"variants_of": "B1", "test": "abundance fitness (aPCA) (normalised: wild type 0, dead -1); higher = more abundant; growth selection in yeast, the domain comes from the species named", "conditions": "Homo sapiens"}
{"variant": "GYRKEQERLGIPYDPIQWSTDQVLHWVVWVMKEFSMTDIDLTTLNISGRELCSLNIEDFFQRVPRGEILWSHLELLRKY", "abundance fitness": "-0.133 ± 0.088"}
{"variant": "GYRKEQERLGIPYDPIQWSTDQVLHWVVWVMKEFSMTDIDLTTLNISGRELCSLNEEDFFQRVPRGEILWSHLELLRKY", "abundance fitness": "-0.015 ± 0.054"}
{"variant": "GYRKEQERLGIPYDPIQWSTDQVLHWVVWVMKEFSMTDIDLTTLNISGRELCSLNVEDFFQRVPRGEILWSHLELLRKY", "abundance fitness": "-0.184 ± 0.047"}
{"variant": "GYRKEQERLGIPYDPIQWSTDQVLHWVVWVMKEFSMTDIDLTTLNISGRELCSLNGEDFFQRVPRGEILWSHLELLRKY", "abundance fitness": "-0.245 ± 0.04"}
{"variant": "GYRKEQERLGIPYDPIQWSTDQVLHWVVWVMKEFSMTDIDLTTLNISGRELCSLNREDFFQRVPRGEILWSHLELLRKY", "abundance fitness": "-0.008 ± 0.037"}
{"variant": "GYRKEQERLGIPYDPIQWSTDQVLHWVVWVMKEFSMTDIDLTTLNISGRELCSLNAEDFFQRVPRGEILWSHLELLRKY", "abundance fitness": "-0.044 ± 0.047"}
{"variant": "GYRKEQERLGIPYDPIQWSTDQVLHWVVWVMKEFSMTDIDLTTLNISGRELCSLNDEDFFQRVPRGEILWSHLELLRKY", "abundance fitness": "-0.262 ± 0.091"}
{"variant": "GYRKEQERLGIPYDPIQWSTDQVLHWVVWVMKEFSMTDIDLTTLNISGRELCSLNMEDFFQRVPRGEILWSHLELLRKY", "abundance fitness": "-0.107 ± 0.066"}
{"variant": "GYRKEQERLGIPYDPIQWSTDQVLHWVVWVMKEFSMTDIDLTTLNISGRELCSLNFEDFFQRVPRGEILWSHLELLRKY", "abundance fitness": "-0.087 ± 0.097"}
{"variant": "GYRKEQERLGIPYDPIQWSTDQVLHWVVWVMKEFSMTDIDLTTLNISGRELCSLNWEDFFQRVPRGEILWSHLELLRKY", "abundance fitness": "-0.351 ± 0.065"}
{"variant": "GYRKEQERLGIPYDPIQWSTDQVLHWVVWVMKEFSMTDIDLTTLNISGRELCSLNNEDFFQRVPRGEILWSHLELLRKY", "abundance fitness": "-0.455 ± 0.13"}
{"variant": "GYRKEQERLGIPYDPIQWSTDQVLHWVVWVMKEFSMTDIDLTTLNISGRELCSLNTEDFFQRVPRGEILWSHLELLRKY", "abundance fitness": "-0.132 ± 0.066"}
{"variant": "GYRKEQERLGIPYDPIQWSTDQVLHWVVWVMKEFSMTDIDLTTLNISGRELCSLNYEDFFQRVPRGEILWSHLELLRKY", "abundance fitness": "0.025 ± 0.099"}
{"variant": "GYRKEQERLGIPYDPIQWSTDQVLHWVVWVMKEFSMTDIDLTTLNISGRELCSLNLEDFFQRVPRGEILWSHLELLRKY", "abundance fitness": "-0.291 ± 0.043"}
{"variant": "GYRKEQERLGIPYDPIQWSTDQVLHWVVWVMKEFSMTDIDLTTLNISGRELCSLNPEDFFQRVPRGEILWSHLELLRKY", "abundance fitness": "-0.178 ± 0.055"}
{"variant": "GYRKEQERLGIPYDPIQWSTDQVLHWVVWVMKEFSMTDIDLTTLNISGRELCSLNHEDFFQRVPRGEILWSHLELLRKY", "abundance fitness": "-0.049 ± 0.083"}
{"variant": "GYRKEQERLGIPYDPIQWSTDQVLHWVVWVMKEFSMTDIDLTTLNISGRELCSLNKEDFFQRVPRGEILWSHLELLRKY", "abundance fitness": "-0.004 ± 0.091"}
{"variant": "GYRKEQERLGIPYDPIQWSTDQVLHWVVWVMKEFSMTDIDLTTLNISGRELCSLNQLDFFQRVPRGEILWSHLELLRKY", "abundance fitness": "-0.076 ± 0.044"}
{"variant": "GYRKEQERLGIPYDPIQWSTDQVLHWVVWVMKEFSMTDIDLTTLNISGRELCSLNQQDFFQRVPRGEILWSHLELLRKY", "abundance fitness": "-0.046 ± 0.063"}
{"variant": "GYRKEQERLGIPYDPIQWSTDQVLHWVVWVMKEFSMTDIDLTTLNISGRELCSLNQIDFFQRVPRGEILWSHLELLRKY", "abundance fitness": "-0.153 ± 0.14"}
{"variant": "GYRKEQERLGIPYDPIQWSTDQVLHWVVWVMKEFSMTDIDLTTLNISGRELCSLNQDDFFQRVPRGEILWSHLELLRKY", "abundance fitness": "-0.063 ± 0.089"}
{"variant": "GYRKEQERLGIPYDPIQWSTDQVLHWVVWVMKEFSMTDIDLTTLNISGRELCSLNQHDFFQRVPRGEILWSHLELLRKY", "abundance fitness": "-0.023 ± 0.093"}
{"variant": "GYRKEQERLGIPYDPIQWSTDQVLHWVVWVMKEFSMTDIDLTTLNISGRELCSLNQNDFFQRVPRGEILWSHLELLRKY", "abundance fitness": "-0.192 ± 0.099"}
{"variant": "GYRKEQERLGIPYDPIQWSTDQVLHWVVWVMKEFSMTDIDLTTLNISGRELCSLNQKDFFQRVPRGEILWSHLELLRKY", "abundance fitness": "-0.122 ± 0.089"}
{"variant": "GYRKEQERLGIPYDPIQWSTDQVLHWVVWVMKEFSMTDIDLTTLNISGRELCSLNQVDFFQRVPRGEILWSHLELLRKY", "abundance fitness": "-0.081 ± 0.04"}
{"variant": "GYRKEQERLGIPYDPIQWSTDQVLHWVVWVMKEFSMTDIDLTTLNISGRELCSLNQGDFFQRVPRGEILWSHLELLRKY", "abundance fitness": "-0.045 ± 0.042"}
{"variant": "GYRKEQERLGIPYDPIQWSTDQVLHWVVWVMKEFSMTDIDLTTLNISGRELCSLNQTDFFQRVPRGEILWSHLELLRKY", "abundance fitness": "-0.068 ± 0.061"}
{"variant": "GYRKEQERLGIPYDPIQWSTDQVLHWVVWVMKEFSMTDIDLTTLNISGRELCSLNQPDFFQRVPRGEILWSHLELLRKY", "abundance fitness": "-0.098 ± 0.043"}
{"variant": "GYRKEQERLGIPYDPIQWSTDQVLHWVVWVMKEFSMTDIDLTTLNISGRELCSLNQMDFFQRVPRGEILWSHLELLRKY", "abundance fitness": "-0.139 ± 0.073"}
{"variant": "GYRKEQERLGIPYDPIQWSTDQVLHWVVWVMKEFSMTDIDLTTLNISGRELCSLNQCDFFQRVPRGEILWSHLELLRKY", "abundance fitness": "-0.058 ± 0.086"}
{"variant": "GYRKEQERLGIPYDPIQWSTDQVLHWVVWVMKEFSMTDIDLTTLNISGRELCSLNQYDFFQRVPRGEILWSHLELLRKY", "abundance fitness": "0.009 ± 0.098"}
{"variant": "GYRKEQERLGIPYDPIQWSTDQVLHWVVWVMKEFSMTDIDLTTLNISGRELCSLNQSDFFQRVPRGEILWSHLELLRKY", "abundance fitness": "-0.051 ± 0.042"}
{"variant": "GYRKEQERLGIPYDPIQWSTDQVLHWVVWVMKEFSMTDIDLTTLNISGRELCSLNQRDFFQRVPRGEILWSHLELLRKY", "abundance fitness": "-0.082 ± 0.037"}
{"variant": "GYRKEQERLGIPYDPIQWSTDQVLHWVVWVMKEFSMTDIDLTTLNISGRELCSLNQWDFFQRVPRGEILWSHLELLRKY", "abundance fitness": "-0.135 ± 0.068"}
{"variant": "GYRKEQERLGIPYDPIQWSTDQVLHWVVWVMKEFSMTDIDLTTLNISGRELCSLNQADFFQRVPRGEILWSHLELLRKY", "abundance fitness": "0.011 ± 0.047"}
